From EP4442276A1 (INSTITUT PASTEUR, dated 2024)

Experiments:
Experiment in all cases: ELISA on coated recombinant spike trimer
[1] = biological target: T1, Trimeric MERS-CoV spike ectodomain (tri-S) (MERS-CoV, UniProt K9N5Q8 18-1296)
T1 construct: extracellular domain
T1 sequence: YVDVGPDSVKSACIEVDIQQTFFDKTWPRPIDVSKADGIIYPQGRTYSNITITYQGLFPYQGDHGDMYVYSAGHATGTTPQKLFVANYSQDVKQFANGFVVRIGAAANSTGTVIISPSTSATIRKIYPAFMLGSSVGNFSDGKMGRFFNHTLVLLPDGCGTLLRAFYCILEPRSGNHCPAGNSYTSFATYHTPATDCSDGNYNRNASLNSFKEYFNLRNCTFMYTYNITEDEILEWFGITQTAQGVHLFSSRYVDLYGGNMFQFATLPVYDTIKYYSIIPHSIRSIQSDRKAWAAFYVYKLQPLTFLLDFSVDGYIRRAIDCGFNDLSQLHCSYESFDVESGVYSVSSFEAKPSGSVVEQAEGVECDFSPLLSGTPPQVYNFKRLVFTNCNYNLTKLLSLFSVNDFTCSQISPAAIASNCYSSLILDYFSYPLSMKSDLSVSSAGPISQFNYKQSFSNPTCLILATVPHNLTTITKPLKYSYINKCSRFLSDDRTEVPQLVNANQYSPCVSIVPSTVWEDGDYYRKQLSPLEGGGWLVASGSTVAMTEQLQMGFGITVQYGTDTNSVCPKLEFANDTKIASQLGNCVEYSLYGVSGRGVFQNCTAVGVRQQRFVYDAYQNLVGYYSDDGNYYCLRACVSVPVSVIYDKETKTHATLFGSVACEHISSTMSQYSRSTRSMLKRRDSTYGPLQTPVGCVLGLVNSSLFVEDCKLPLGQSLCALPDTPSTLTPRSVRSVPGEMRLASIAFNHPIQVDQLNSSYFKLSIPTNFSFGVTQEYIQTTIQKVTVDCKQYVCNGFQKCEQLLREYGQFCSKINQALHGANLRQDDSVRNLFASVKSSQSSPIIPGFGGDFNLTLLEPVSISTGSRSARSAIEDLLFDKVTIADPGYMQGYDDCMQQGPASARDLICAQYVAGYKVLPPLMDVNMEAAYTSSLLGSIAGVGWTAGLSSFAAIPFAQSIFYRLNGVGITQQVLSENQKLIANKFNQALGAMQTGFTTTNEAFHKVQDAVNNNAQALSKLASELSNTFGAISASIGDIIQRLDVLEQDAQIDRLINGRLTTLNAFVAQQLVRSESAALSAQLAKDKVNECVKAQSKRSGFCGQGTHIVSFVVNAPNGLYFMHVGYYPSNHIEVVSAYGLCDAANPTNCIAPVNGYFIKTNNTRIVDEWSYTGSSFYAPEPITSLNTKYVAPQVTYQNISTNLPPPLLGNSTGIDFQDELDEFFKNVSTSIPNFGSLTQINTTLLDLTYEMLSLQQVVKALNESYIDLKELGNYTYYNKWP

[2] = biological target: T2, Trimeric HKU1-CoV spike ectodomain (tri-S) (HKU1-CoV, UniProt Q5MQD0 13-1300)
T2 construct: extracellular domain
T2 sequence: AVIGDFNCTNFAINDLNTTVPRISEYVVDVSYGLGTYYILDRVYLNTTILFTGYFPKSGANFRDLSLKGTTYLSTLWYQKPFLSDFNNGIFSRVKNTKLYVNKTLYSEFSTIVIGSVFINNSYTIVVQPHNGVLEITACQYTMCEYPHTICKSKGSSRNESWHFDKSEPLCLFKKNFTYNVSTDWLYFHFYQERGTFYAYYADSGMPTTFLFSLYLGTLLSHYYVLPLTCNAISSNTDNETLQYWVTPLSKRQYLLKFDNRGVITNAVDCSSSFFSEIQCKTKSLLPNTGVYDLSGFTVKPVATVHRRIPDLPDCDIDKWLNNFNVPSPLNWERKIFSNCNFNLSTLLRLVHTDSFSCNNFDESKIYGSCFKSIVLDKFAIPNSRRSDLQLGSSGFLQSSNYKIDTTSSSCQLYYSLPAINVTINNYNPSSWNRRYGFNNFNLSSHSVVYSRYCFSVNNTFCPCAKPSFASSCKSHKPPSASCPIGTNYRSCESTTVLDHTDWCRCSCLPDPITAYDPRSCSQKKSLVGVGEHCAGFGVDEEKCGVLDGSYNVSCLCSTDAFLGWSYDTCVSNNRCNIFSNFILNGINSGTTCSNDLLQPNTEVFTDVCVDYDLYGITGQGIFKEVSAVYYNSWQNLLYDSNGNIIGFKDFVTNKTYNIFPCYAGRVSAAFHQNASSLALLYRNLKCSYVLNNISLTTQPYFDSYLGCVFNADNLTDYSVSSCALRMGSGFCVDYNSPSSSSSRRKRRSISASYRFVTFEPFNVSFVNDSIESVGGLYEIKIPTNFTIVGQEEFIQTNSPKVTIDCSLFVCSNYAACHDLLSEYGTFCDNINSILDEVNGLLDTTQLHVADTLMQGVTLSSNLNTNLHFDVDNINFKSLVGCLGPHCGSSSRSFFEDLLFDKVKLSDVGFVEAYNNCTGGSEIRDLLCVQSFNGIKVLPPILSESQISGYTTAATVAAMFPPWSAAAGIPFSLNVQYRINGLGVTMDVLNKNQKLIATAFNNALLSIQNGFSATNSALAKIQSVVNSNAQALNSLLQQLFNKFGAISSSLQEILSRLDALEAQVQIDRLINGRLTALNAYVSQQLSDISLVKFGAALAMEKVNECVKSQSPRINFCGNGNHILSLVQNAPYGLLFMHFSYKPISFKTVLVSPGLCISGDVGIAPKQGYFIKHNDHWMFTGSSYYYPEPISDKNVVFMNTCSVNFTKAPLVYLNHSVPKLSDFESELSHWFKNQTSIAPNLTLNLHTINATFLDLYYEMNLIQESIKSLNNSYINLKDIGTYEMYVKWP

[3] = biological target: T3, Trimeric OC43-CoV spike ectodomain (tri-S) (OC43-CoV, UniProt P36334 14-1297)
T3 construct: extracellular domain
T3 sequence: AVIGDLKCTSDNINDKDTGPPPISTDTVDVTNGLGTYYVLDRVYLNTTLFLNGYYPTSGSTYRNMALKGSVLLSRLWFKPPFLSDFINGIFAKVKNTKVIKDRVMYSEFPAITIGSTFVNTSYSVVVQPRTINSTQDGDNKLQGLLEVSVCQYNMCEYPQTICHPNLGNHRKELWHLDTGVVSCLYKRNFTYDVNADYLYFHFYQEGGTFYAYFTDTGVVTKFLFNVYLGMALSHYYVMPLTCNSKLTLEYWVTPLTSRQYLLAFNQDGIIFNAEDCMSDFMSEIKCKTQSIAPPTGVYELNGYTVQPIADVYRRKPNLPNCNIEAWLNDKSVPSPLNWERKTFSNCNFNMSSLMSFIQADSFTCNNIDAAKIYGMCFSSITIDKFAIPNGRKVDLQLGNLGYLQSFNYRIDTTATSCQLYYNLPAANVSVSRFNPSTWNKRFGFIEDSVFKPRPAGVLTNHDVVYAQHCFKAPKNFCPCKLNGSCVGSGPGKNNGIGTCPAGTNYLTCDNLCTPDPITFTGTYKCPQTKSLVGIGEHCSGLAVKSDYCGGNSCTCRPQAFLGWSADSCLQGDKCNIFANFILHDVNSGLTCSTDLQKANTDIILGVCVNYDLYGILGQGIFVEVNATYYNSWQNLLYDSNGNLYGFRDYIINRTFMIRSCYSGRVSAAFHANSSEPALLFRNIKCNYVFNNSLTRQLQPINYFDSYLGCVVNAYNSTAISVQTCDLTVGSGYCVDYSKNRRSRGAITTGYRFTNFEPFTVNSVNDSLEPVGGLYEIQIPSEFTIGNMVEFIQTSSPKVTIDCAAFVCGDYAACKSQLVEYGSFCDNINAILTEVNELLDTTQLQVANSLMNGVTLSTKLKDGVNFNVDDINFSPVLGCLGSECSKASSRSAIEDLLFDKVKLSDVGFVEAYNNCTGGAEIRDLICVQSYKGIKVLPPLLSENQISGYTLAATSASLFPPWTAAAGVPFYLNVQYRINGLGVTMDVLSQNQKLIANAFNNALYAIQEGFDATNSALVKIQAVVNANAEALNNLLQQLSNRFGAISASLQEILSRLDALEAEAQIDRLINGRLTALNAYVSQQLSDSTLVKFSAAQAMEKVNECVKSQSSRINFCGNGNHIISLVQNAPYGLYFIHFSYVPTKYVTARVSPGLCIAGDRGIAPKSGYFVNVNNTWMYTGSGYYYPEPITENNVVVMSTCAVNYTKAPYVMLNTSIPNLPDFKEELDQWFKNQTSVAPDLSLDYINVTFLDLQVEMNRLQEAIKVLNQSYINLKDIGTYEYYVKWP

[4] = biological target: T4, Trimeric 229E-CoV spike ectodomain (tri-S) (229E-CoV, UniProt P15423 16-1115)
T4 construct: extracellular domain
T4 sequence: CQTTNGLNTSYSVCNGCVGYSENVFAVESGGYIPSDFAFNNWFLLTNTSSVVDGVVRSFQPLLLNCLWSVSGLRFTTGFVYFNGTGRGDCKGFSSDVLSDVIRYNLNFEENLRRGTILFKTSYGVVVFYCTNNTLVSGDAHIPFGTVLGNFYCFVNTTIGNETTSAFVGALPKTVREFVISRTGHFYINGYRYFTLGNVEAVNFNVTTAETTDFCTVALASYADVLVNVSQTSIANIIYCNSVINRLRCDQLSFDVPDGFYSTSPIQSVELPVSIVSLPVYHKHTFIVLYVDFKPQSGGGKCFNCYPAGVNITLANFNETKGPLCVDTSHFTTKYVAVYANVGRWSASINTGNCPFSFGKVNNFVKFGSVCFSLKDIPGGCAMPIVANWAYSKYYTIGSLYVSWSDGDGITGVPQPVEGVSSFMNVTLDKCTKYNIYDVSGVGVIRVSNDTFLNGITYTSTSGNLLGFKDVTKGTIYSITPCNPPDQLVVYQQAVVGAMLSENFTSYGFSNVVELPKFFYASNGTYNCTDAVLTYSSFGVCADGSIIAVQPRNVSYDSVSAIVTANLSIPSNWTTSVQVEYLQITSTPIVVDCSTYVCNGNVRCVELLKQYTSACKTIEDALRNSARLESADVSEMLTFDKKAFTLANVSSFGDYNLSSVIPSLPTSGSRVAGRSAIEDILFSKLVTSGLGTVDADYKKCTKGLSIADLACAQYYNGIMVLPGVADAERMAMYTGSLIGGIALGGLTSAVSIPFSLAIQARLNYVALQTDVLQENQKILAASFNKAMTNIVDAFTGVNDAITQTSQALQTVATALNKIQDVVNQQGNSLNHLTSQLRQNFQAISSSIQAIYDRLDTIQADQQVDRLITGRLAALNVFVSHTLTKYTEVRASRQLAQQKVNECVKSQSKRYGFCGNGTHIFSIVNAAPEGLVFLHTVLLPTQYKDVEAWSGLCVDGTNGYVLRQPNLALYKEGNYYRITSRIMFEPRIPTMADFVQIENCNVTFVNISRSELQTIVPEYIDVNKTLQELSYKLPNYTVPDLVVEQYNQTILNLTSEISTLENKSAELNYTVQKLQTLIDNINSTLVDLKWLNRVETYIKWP

Measured: binding result

B1: Cv2.3132 IgG antibody (antibody, V domains shown)
VH: EVQLVESGGGLVKPGGSLRLSCAASGFTFSDYYMSWIRQAPGKGLEWVSYISSSGSVQYYADSVKGRFTISRDNAKNSLYLQMNSLRAEDTAVYYCARYYYDSSGYWKRLDYWGQGTLVTVSS
VL: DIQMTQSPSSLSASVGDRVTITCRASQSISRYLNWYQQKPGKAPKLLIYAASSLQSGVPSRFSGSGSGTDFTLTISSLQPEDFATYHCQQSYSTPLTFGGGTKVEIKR
notes: also called anti-HR2 antibody Cv2.3132
no binding: [1] | [2] | [3] | [4]
